Reference: patent US20130344070A1 (SORRENTO THERAPEUTICS, published 2013)
Where a chain is given by its changes, count along the chain named.

B1: 1H5 (antibody, V domains shown)
VH: EVQLVQSGAEVKKPGASVKVSCKASGYTFTSYYMHWVRQAPGQGLEWMGIINPSGGSTSYAHKFQGRVTMTRDTSTSTVYMELSSLRSEDTAVYYCARGGHVLRFLEWLGLEGPFDYWGQGTLVTVSS
VL: LPVLTQPPSVSKGLRQTATLTCTGNSNNVGNQGAAWLQQHQGQPPKLLSYRNHNRPSGVSERFSPSRSGDTSSLTITGLQPEDEADYYCLAWDSSLRAFVFGTGTKLTVL
notes: tested as IgG
B2: 1B2 (antibody, human IgG1, V domains shown)
VH: EVQLVESGAEVKKPGASVKVSCKASGYTFTGYYMNWVRQAPGQGLEWMGWINPNSGGTKYAQKFQGRVTMTSDTSINTAYMELSRLRYDDTAVYYCATGGFQHWGQGTLVTVSS
VL: B1 VL
B3: 1G11 (antibody, human IgG1, V domains shown)
VH: EVQLVESGAEVKKPGASVKVSCKASGYIFTGYYIHWVRQAPGQGLEWMGWINPNNGVTKYAEKFQGRVTMTRDTSITTAYMDLSRLRSDDTAIYYCATGGFEYWGQGTLVTVSS
VL: B1 VL
B4: D1-1/45H8L1 (antibody, V domains shown)
VH: QVQLVQSGAEVKKPGASVKVSCKASGYTFTGYYMHWVRQAPGQGLEWMGWINPNSGVTKYAQKFQGRVTMTRDTSTSTVYMELSSLRSEDTAVYYCATGGFGYWGEGTLVTVSS
VL: B1 VL with L1Q, P2A
notes: also called D1H1/45H8L1; D1-1B
B5: 43D12 (antibody, V domains shown)
VH: EVQLVESGGGLVQPGGSLRLSCVASGFTFSDYWMSWVRQAPGKGLEWVANIKKDGSVNYYVDSVKGRFTISRDNAKNSLYLQMNSLRAEDTAVYYCTRFDYWGQGTLVTVSS
VL: QAGLTQPPSVSKGLRQTATLTCTGNSNNVGNQGAAWLQQHQGHPPKLLFYRNNNRASGISERLSASRSGNTASLTITGLQPEDEADYYCLTWDSSLSVVVFGGGTKLTVL
notes: tested as IgG; 27/28 '43D12'; the text calls the same pair '43G12'; also called 43G12
B6: 54A9 (antibody, V domains shown)
VH: VQLVESGAEVKKPGASVKVSCKASGYTFSSHYMHWVRQAPGQGLEWMGIINPSGGSTIYAQKFQGRVTINADESTSTAYMELSSLGSDDTAVYYCARAAGGAVAGHGARFDYWGQGTLVTVSS
VL: LPVLTQPASVSGSPGQSITISCTGTSSDVGGYNYVSWYQQHPGKAPKLMIYDVSNRPSGVSNRFSGSKSGNTASLTISGLQAEDEADYYCSSYRRSSTLVFGGGTKLTVL
notes: tested as IgG
B7: 42G7 (antibody, V domains shown)
VH: QVQLVQSGAEVKKPGASVKVSCKASGYTFSSYYMHWVRQAPGQGLEWMGIINPSGGNTSYAQKFQGRVTMTRDTSTSTVYMELSSLRSEDTAVYYCARGGYQLPHGRARAFDMWGQGTMVTVSS
VL: AIRMTQSPLSLPVTLGQPASISCTSSQSLVYRDGTTYLNWFQQRPGQSPRRLIYKVSNRDSGVPDRFTGSGSGTTFTLTISRVEAEDVGIYYCMQGTHWPLTFGQGTKVEI
notes: tested as IgG
B8: D1-1/LO (antibody, V domains shown)
VH: B4 VH
VL: B1 VL
notes: The suffix '/LO' is not explained
B9: 1B11 (antibody, V domains shown)
VH: QVQLVESGGGVVQPGRSLRLSCAASGFTFSSYAMHWVRQAPGKGLEWVAVISYDGSNKYYADSVKGRFTISRDNSKNTLYLQMNSLKAEDTAVYYCATAAAGPFDYWGQGTTVTVSS
VL: B1 VL
notes: tested as IgG
B10: D1-7/LO (antibody, V domains shown)
VH: QVQLVQSGAEVKKPGASVKVSCKASGYTFTGYYMHWVRQAPGQGLEWMGWINPNSGVTKYAQKFQGRVTMTRDTSTSTVYMELSSLRSEDTAVYYCATGSGGGTMDVWGEGTLVTVSS
VL: B1 VL
notes: tested as IgG. '/LO' not explained
B11: D1-2/LO (antibody, V domains shown)
VH: B4 VH with Y33H, W50I, N54S, S55G, V57S, K59S
VL: B1 VL
notes: as for B10
B12: D1-4/LO (antibody, V domains shown)
VH: B4 VH with W50I, N54S, S55G, V57S, K59S
VL: B1 VL
notes: as for B10
B13: 1A2 (antibody, V domains shown)
VH: B10 VH with Q1E, G31S, W50I, N54S, S55G, V57S, K59S, E110Q, L113T
VL: B1 VL
notes: tested as IgG
B14: D1-6/LO (antibody, V domains shown)
VH: B4 VH with Y33H, W50I, N54S, V57S
VL: B1 VL
notes: as for B10

target: T1, human CCR2 (CC-Chemokine Receptor 2) (human, UniProt P41597 1-374); experiment: cell-based or functional assay
T1 sequence (P41597 whole entry): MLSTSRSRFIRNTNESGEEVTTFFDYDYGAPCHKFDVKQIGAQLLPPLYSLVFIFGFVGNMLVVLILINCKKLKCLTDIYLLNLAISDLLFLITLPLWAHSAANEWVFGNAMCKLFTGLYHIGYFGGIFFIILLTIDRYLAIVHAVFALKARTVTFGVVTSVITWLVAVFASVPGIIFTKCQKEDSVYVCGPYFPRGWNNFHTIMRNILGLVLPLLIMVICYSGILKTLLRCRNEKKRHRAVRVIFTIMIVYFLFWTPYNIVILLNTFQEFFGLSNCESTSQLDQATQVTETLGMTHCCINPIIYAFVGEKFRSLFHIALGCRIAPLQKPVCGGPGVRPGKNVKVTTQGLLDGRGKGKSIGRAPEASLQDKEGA

Row | IC50 on MCP-1 (3 nM) induced THP-1 cell migration [nM] | IC50 on MCP-2 (30 ng/ml) induced THP-1 cell migration [nM] | IC50 on MCP-3 (6 ng/ml) induced THP-1 cell migration [nM] | IC50 on MCP-4 (200 ng/ml) induced THP-1 cell migration [nM] | IC50 on MCP-5 (6 ng/ml) induced THP-1 cell migration [nM] | IC50 on MCP-5 (3 nM) induced THP-1 cell migration [nM] | Binder
1 | 0.109 | 1.9 | 2.6 | 1.4 | 0.349 | – | B1
2 | 0.087 | – | – | – | – | 0.197 | B2
3 | 0.079 | – | – | – | 0.261 | – | B3

target: T1, human CCR2 (CC-Chemokine Receptor 2); experiment: cell-based or functional assay; remark: another data set of the same source

Row | IC50 in calcium flux assay using human THP-1 cells, ligand MCP-1 (2.5 nM) [nM] | IC50 in calcium flux assay using human THP-1 cells, ligand MCP-3 (22 nM) [nM] | IC50 in calcium flux assay using human THP-1 cells, ligand MCP-5 (0.43 nM) [nM] | Binder
4 | 0.92 | 0.29 | 0.89 | B2
5 | 0.75 | 0.25 | 0.56 | B3
6 | 0.37 | 0.19 | 0.27 | B4

target: T1, human CCR2 (CC-Chemokine Receptor 2); experiment: flow cytometry on CHO-huCCR2 cells, PE anti-human IgG
Method: The data in FIG. 1 illustrates in vitro data for cellular binding EC₅₀ measurements. […] In this example, CHO-CCR2 cells were lifted from culture flasks using non-enzymatic Cell Dissociation Buffer—PBS based (Life Technologies #13151-014). Cells were resuspended in FACS Buffer (2% Fetal Bovine Serum in PBS) at 1×10⁶ cells/ml and 100 μl (1×10⁵ cells) were aliquoted into the wells of a 96-well plate. Plated cells were spun down and the supernatant discarded. Cells were resuspended in 50 μl FACS Buffer containing the indicated concentrations of CCR2 D1 IgG in triplicate (FIG. 1). Plates were incubated for 1 hr at 4° C., then washed 1× with FACS Buffer. Cells were resuspended in 50 μl goat anti-human IgG (γ-chain specific)-PE conjugated secondary antibody (Southern Biotech #2040-09) diluted 1:500 in FACS Buffer. Cells were further incubated for 30 min at 4° C. and then washed 1× with FACS Buffer. The cells were resuspended in a final volume of 25 μl FACS Buffer and analyzed using the Intellicyt Flow Cytometer. Median fluorescence in the FL-2H channel was determined using FlowJo software and EC₅₀ value was determined by plotting the data in GraphPad Prism and analyzing using a variable slope non-linear regression.

Row | EC50 [nM] | Binder
7 | 1.8 | B5
8 | 0.53 | B6
9 | 15 | B7
10 | 0.13 | B8
11 | 1.3 | B1
12 | 2.3 | B9
13 | 0.36 | B2
14 | 0.08 | B10
15 | 0.34 | B3
16 | 16 | B11
17 | 1.6 | B12
18 | 2.9 | B13
19 | 3.5 | B14
20 | 0.15 | B4

target: T1, human CCR2 (CC-Chemokine Receptor 2); experiment: cell-based or functional assay; remark: another data set of the same source

Row | IC50 in chemotaxis assay using human THP-1 cells, ligand MCP-1 (3 nM) [nM] | IC50 in chemotaxis assay using human THP-1 cells, ligand MCP-3 (1.1 nM) [nM] | IC50 in chemotaxis assay using human THP-1 cells, ligand MCP-2 (6.7 nM) [nM] | IC50 in chemotaxis assay using human THP-1 cells, ligand MCP-4 (35 nM) [nM] | IC50 in chemotaxis assay using human THP-1 cells, ligand MCP-5 (0.65 nM) [nM] | Binder
21 | 0.13 | 0.1 | – | – | – | B8
22 | 0.09 | 0.04 | 0.06 | 0.05 | 0.2 | B2
23 | 0.08 | 0.07 | 0.16 | 0.06 | 0.26 | B3
24 | 0.28 | – | – | 0.08 | – | B4

target: T2, murine CCR2 (murine, UniProt P51683 1-373); experiment: cell-based or functional assay
T2 sequence (P51683 whole entry): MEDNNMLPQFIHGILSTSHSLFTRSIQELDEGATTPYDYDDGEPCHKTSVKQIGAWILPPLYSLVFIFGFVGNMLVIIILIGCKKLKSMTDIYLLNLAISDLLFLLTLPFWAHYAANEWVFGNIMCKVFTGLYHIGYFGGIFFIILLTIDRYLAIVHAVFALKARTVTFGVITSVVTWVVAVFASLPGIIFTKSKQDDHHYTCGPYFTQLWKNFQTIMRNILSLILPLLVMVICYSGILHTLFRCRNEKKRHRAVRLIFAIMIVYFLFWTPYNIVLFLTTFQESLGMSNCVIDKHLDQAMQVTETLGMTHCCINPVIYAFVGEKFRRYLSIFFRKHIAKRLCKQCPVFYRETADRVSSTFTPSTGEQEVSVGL

Row | IC50 in chemotaxis assay using mouse WEHI cells, ligand mouse MCP-1 (0.7 nM) [nM] | Binder
25 | 0.035 | B8
26 | 0.012 | B4

target: T2, murine CCR2; experiment: flow cytometry on WEHI 274.1 cells (murine CCR2), PE anti-human IgG
Method: In this example, WEHI 274.1 cells were resuspended in FACS Buffer (2% Fetal Bovine Serum in PBS) at 1×10⁶ cells and […] of cell suspension was aliquoted into the wells of a 96-well plate. Plated cells were spun down and the supernatant discarded. Cells were resuspended in 30 μl FACS Buffer containing serially diluted anti-CCR2 IgGs in triplicate. Plates were incubated for 1 hr at 4° C., then washed 2× with FACS Buffer. Cells were resuspended in 50 μl goat anti-human IgG (γ-chain specific)-PE conjugated secondary antibody (Southern Biotech #2040-09) diluted 1:500 in FACS Buffer, incubated for 30 min at 4° C. and then washed 1× with FACS Buffer. The cells were resuspended in a final volume of 30 μl FACS Buffer and analyzed using the Intellicyt Flow Cytometer. Median fluorescence in the FL-2H channel was determined using FlowJo software and EC₅₀ values were determined by plotting the data in GraphPad Prism and analyzed using a variable slope non-linear regression.

Row | EC50 [nM] | Binder
27 | 4.8 | B8
28 | 81 | B11
29 | 2 | B4
